Numbered stars: 1 amine (or outer) side, 2 acyl side, 3 side chain; on linkers, the order of the positions; unused ones are H or OH. Bridge positions count the residues as written; N and C are the ends. Side chains are listed from the residue outwards. Ends that are not written are not given here. * marks the point of attachment. C20 diacid = O=C(O)CCCCCCCCCCCCCCCCCCC(=O)*; γGlu = O=C(O)[C@H](CCC(=O)[*:2])N[*:1]; AEEA = NCCOCCOCC(=O)O

The target in this assay is T1, human calcitonin receptor (human, UniProt P30988 25-474).
T1 construct: whole, on cells; also called hCTR; hCT
T1 sequence (looked up): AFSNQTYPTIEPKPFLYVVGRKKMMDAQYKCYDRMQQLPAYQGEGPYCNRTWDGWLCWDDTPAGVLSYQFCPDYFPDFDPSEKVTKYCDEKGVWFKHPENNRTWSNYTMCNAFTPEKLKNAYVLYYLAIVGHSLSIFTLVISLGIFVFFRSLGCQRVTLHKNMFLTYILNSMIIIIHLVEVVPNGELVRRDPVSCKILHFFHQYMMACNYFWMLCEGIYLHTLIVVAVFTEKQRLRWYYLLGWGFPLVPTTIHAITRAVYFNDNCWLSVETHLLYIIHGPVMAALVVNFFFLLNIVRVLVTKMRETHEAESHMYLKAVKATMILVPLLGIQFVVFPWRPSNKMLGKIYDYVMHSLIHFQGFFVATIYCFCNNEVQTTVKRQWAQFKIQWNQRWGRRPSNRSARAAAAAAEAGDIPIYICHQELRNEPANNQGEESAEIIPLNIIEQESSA
Briefly: SPA competition with 125I-calcitonin, membranes of BHK hCTR cells (Assay VII). In short, it runs like this: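 BHK hCTR membranes 35 ng/μL + SPA beads 0.05 mg/well; buffer 50 mM Hepes pH 7.4, 1 mM CaCl2, 5 mM MgCl₂, 0.1% OA, 0.02% Tween20. 120 min, 25° C., shaking. Scintillation count; IC50 by one-site binding competition.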

B1: N^ε1-[2-[2-[2-(19-carboxynonadecanoylamino)ethoxy]ethoxy]acetyl]-[Arg17,Pro21,Pro27]-h-amylin (peptide)
peptide: K([AEEA-C20 diacid])CNTATCATQRLANFLRHSSPNFGAIPSSTNVGSNTY-NH2
modifications: disulfide 2-7; N-terminus assumed
SMILES: CC[C@H](C)[C@H](NC(=O)[C@H](C)NC(=O)CNC(=O)[C@H](Cc1ccccc1)NC(=O)[C@H](CC(N)=O)NC(=O)[C@@H]1CCCN1C(=O)[C@H](CO)NC(=O)[C@H](CO)NC(=O)[C@H](Cc1c[nH]cn1)NC(=O)[C@H](CCCNC(=N)N)NC(=O)[C@H](CC(C)C)NC(=O)[C@H](Cc1ccccc1)NC(=O)[C@H](CC(N)=O)NC(=O)[C@H](C)NC(=O)[C@H](CC(C)C)NC(=O)[C@H](CCCNC(=N)N)NC(=O)[C@H](CCC(N)=O)NC(=O)[C@@H](NC(=O)[C@H](C)NC(=O)[C@@H]1CSSC[C@H](NC(=O)[C@@H](N)CCCCNC(=O)COCCOCCNC(=O)CCCCCCCCCCCCCCCCCCC(=O)O)C(=O)N[C@@H](CC(N)=O)C(=O)N[C@@H]([C@@H](C)O)C(=O)N[C@@H](C)C(=O)N[C@@H]([C@@H](C)O)C(=O)N1)[C@@H](C)O)C(=O)N1CCC[C@H]1C(=O)N[C@@H](CO)C(=O)N[C@@H](CO)C(=O)N[C@H](C(=O)N[C@@H](CC(N)=O)C(=O)N[C@H](C(=O)NCC(=O)N[C@@H](CO)C(=O)N[C@@H](CC(N)=O)C(=O)N[C@H](C(=O)N[C@@H](Cc1ccc(O)cc1)C(N)=O)[C@@H](C)O)C(C)C)[C@@H](C)O
notes: also called compound 43
Consider B1, for which the IC50 – broadly, the point on the concentration scale where inhibition reaches its midpoint – worked out at 2.64 nM.

B2: N^ε1-[2-[2-[2-[[(4S)-4-carboxy-4-(19-carboxynonadecanoylamino)butanoyl]amino]ethoxy]ethoxy]acetyl]-[Arg17,Pro21,Pro27]-h-amylin (peptide)
peptide: K([AEEA-γGlu-C20 diacid])CNTATCATQRLANFLRHSSPNFGAIPSSTNVGSNTY-NH2
modifications: disulfide 2-7; N-terminus assumed
SMILES: CC[C@H](C)[C@H](NC(=O)[C@H](C)NC(=O)CNC(=O)[C@H](Cc1ccccc1)NC(=O)[C@H](CC(N)=O)NC(=O)[C@@H]1CCCN1C(=O)[C@H](CO)NC(=O)[C@H](CO)NC(=O)[C@H](Cc1c[nH]cn1)NC(=O)[C@H](CCCNC(=N)N)NC(=O)[C@H](CC(C)C)NC(=O)[C@H](Cc1ccccc1)NC(=O)[C@H](CC(N)=O)NC(=O)[C@H](C)NC(=O)[C@H](CC(C)C)NC(=O)[C@H](CCCNC(=N)N)NC(=O)[C@H](CCC(N)=O)NC(=O)[C@@H](NC(=O)[C@H](C)NC(=O)[C@@H]1CSSC[C@H](NC(=O)[C@@H](N)CCCCNC(=O)COCCOCCNC(=O)CC[C@H](NC(=O)CCCCCCCCCCCCCCCCCCC(=O)O)C(=O)O)C(=O)N[C@@H](CC(N)=O)C(=O)N[C@@H]([C@@H](C)O)C(=O)N[C@@H](C)C(=O)N[C@@H]([C@@H](C)O)C(=O)N1)[C@@H](C)O)C(=O)N1CCC[C@H]1C(=O)N[C@@H](CO)C(=O)N[C@@H](CO)C(=O)N[C@H](C(=O)N[C@@H](CC(N)=O)C(=O)N[C@H](C(=O)NCC(=O)N[C@@H](CO)C(=O)N[C@@H](CC(N)=O)C(=O)N[C@H](C(=O)N[C@@H](Cc1ccc(O)cc1)C(N)=O)[C@@H](C)O)C(C)C)[C@@H](C)O
notes: also called compound 41
In the case of B2, the IC50 was 21.3 nM.

B3: N^α1-[(4S)-4-carboxy-4-(19-carboxynonadecanoylamino)butanoyl]-[Glu14,Arg17,Pro21,Pro25,Pro28,Pro29]-h-amylin (peptide)
peptide: {C20 diacid-γGlu}-KCNTATCATQRLAEFLRHSSPNFGPILPPTNVGSNTY-NH2
modifications: disulfide 2-7
SMILES: CC[C@H](C)[C@H](NC(=O)[C@@H]1CCCN1C(=O)CNC(=O)[C@H](Cc1ccccc1)NC(=O)[C@H](CC(N)=O)NC(=O)[C@@H]1CCCN1C(=O)[C@H](CO)NC(=O)[C@H](CO)NC(=O)[C@H](Cc1c[nH]cn1)NC(=O)[C@H](CCCNC(=N)N)NC(=O)[C@H](CC(C)C)NC(=O)[C@H](Cc1ccccc1)NC(=O)[C@H](CCC(=O)O)NC(=O)[C@H](C)NC(=O)[C@H](CC(C)C)NC(=O)[C@H](CCCNC(=N)N)NC(=O)[C@H](CCC(N)=O)NC(=O)[C@@H](NC(=O)[C@H](C)NC(=O)[C@@H]1CSSC[C@H](NC(=O)[C@H](CCCCN)NC(=O)CC[C@H](NC(=O)CCCCCCCCCCCCCCCCCCC(=O)O)C(=O)O)C(=O)N[C@@H](CC(N)=O)C(=O)N[C@@H]([C@@H](C)O)C(=O)N[C@@H](C)C(=O)N[C@@H]([C@@H](C)O)C(=O)N1)[C@@H](C)O)C(=O)N[C@@H](CC(C)C)C(=O)N1CCC[C@H]1C(=O)N1CCC[C@H]1C(=O)N[C@H](C(=O)N[C@@H](CC(N)=O)C(=O)N[C@H](C(=O)NCC(=O)N[C@@H](CO)C(=O)N[C@@H](CC(N)=O)C(=O)N[C@H](C(=O)N[C@@H](Cc1ccc(O)cc1)C(N)=O)[C@@H](C)O)C(C)C)[C@@H](C)O
notes: also called compound 6
In the case of B3, the IC50 is 19.9 nM.

B4: N^ε1-[(4S)-4-carboxy-4-[[(4S)-4-carboxy-4-(19-carboxynonadecanoylamino)butanoyl]amino]butanoyl]-[Asp14,Arg17,Pro21,Pro27,Arg35]-h-amylin (peptide)
peptide: K([γGlu-γGlu-C20 diacid])CNTATCATQRLADFLRHSSPNFGAIPSSTNVGSRTY-NH2
modifications: disulfide 2-7; N-terminus assumed
SMILES: CC[C@H](C)[C@H](NC(=O)[C@H](C)NC(=O)CNC(=O)[C@H](Cc1ccccc1)NC(=O)[C@H](CC(N)=O)NC(=O)[C@@H]1CCCN1C(=O)[C@H](CO)NC(=O)[C@H](CO)NC(=O)[C@H](Cc1c[nH]cn1)NC(=O)[C@H](CCCNC(=N)N)NC(=O)[C@H](CC(C)C)NC(=O)[C@H](Cc1ccccc1)NC(=O)[C@H](CC(=O)O)NC(=O)[C@H](C)NC(=O)[C@H](CC(C)C)NC(=O)[C@H](CCCNC(=N)N)NC(=O)[C@H](CCC(N)=O)NC(=O)[C@@H](NC(=O)[C@H](C)NC(=O)[C@@H]1CSSC[C@H](NC(=O)[C@@H](N)CCCCNC(=O)CC[C@H](NC(=O)CC[C@H](NC(=O)CCCCCCCCCCCCCCCCCCC(=O)O)C(=O)O)C(=O)O)C(=O)N[C@@H](CC(N)=O)C(=O)N[C@@H]([C@@H](C)O)C(=O)N[C@@H](C)C(=O)N[C@@H]([C@@H](C)O)C(=O)N1)[C@@H](C)O)C(=O)N1CCC[C@H]1C(=O)N[C@@H](CO)C(=O)N[C@@H](CO)C(=O)N[C@H](C(=O)N[C@@H](CC(N)=O)C(=O)N[C@H](C(=O)NCC(=O)N[C@@H](CO)C(=O)N[C@@H](CCCNC(=N)N)C(=O)N[C@H](C(=O)N[C@@H](Cc1ccc(O)cc1)C(N)=O)[C@@H](C)O)C(C)C)[C@@H](C)O
notes: also called compound 52
For the molecule B4, the IC50 stood at 56.9 nM.

B5: N^ε1-[(4S)-4-carboxy-4-[[(4S)-4-carboxy-4-(19-carboxynonadecanoylamino)butanoyl]amino]butanoyl]-[Asp14,Arg17,Pro21,Pro27,Asp35]-h-amylin (peptide)
peptide: K([γGlu-γGlu-C20 diacid])CNTATCATQRLADFLRHSSPNFGAIPSSTNVGSDTY-NH2
modifications: disulfide 2-7; N-terminus assumed
SMILES: CC[C@H](C)[C@H](NC(=O)[C@H](C)NC(=O)CNC(=O)[C@H](Cc1ccccc1)NC(=O)[C@H](CC(N)=O)NC(=O)[C@@H]1CCCN1C(=O)[C@H](CO)NC(=O)[C@H](CO)NC(=O)[C@H](Cc1c[nH]cn1)NC(=O)[C@H](CCCNC(=N)N)NC(=O)[C@H](CC(C)C)NC(=O)[C@H](Cc1ccccc1)NC(=O)[C@H](CC(=O)O)NC(=O)[C@H](C)NC(=O)[C@H](CC(C)C)NC(=O)[C@H](CCCNC(=N)N)NC(=O)[C@H](CCC(N)=O)NC(=O)[C@@H](NC(=O)[C@H](C)NC(=O)[C@@H]1CSSC[C@H](NC(=O)[C@@H](N)CCCCNC(=O)CC[C@H](NC(=O)CC[C@H](NC(=O)CCCCCCCCCCCCCCCCCCC(=O)O)C(=O)O)C(=O)O)C(=O)N[C@@H](CC(N)=O)C(=O)N[C@@H]([C@@H](C)O)C(=O)N[C@@H](C)C(=O)N[C@@H]([C@@H](C)O)C(=O)N1)[C@@H](C)O)C(=O)N1CCC[C@H]1C(=O)N[C@@H](CO)C(=O)N[C@@H](CO)C(=O)N[C@H](C(=O)N[C@@H](CC(N)=O)C(=O)N[C@H](C(=O)NCC(=O)N[C@@H](CO)C(=O)N[C@@H](CC(=O)O)C(=O)N[C@H](C(=O)N[C@@H](Cc1ccc(O)cc1)C(N)=O)[C@@H](C)O)C(C)C)[C@@H](C)O
notes: also called compound 2
For B5, the IC50 was determined as 19.5 nM.

B6: N^ε1N^ε1-[(4S)-4-carboxy-4-(19-carboxynonadecanoylamino)butanoyl]-[His14,Arg17,Pro21,Pro27,Pro34]-h-amylin (peptide)
peptide: K([γGlu-C20 diacid])CNTATCATQRLAHFLRHSSPNFGAIPSSTNVGPNTY-NH2
modifications: disulfide 2-7; N-terminus assumed
SMILES: CC[C@H](C)[C@H](NC(=O)[C@H](C)NC(=O)CNC(=O)[C@H](Cc1ccccc1)NC(=O)[C@H](CC(N)=O)NC(=O)[C@@H]1CCCN1C(=O)[C@H](CO)NC(=O)[C@H](CO)NC(=O)[C@H](Cc1c[nH]cn1)NC(=O)[C@H](CCCNC(=N)N)NC(=O)[C@H](CC(C)C)NC(=O)[C@H](Cc1ccccc1)NC(=O)[C@H](Cc1c[nH]cn1)NC(=O)[C@H](C)NC(=O)[C@H](CC(C)C)NC(=O)[C@H](CCCNC(=N)N)NC(=O)[C@H](CCC(N)=O)NC(=O)[C@@H](NC(=O)[C@H](C)NC(=O)[C@@H]1CSSC[C@H](NC(=O)[C@@H](N)CCCCNC(=O)CC[C@H](NC(=O)CCCCCCCCCCCCCCCCCCC(=O)O)C(=O)O)C(=O)N[C@@H](CC(N)=O)C(=O)N[C@@H]([C@@H](C)O)C(=O)N[C@@H](C)C(=O)N[C@@H]([C@@H](C)O)C(=O)N1)[C@@H](C)O)C(=O)N1CCC[C@H]1C(=O)N[C@@H](CO)C(=O)N[C@@H](CO)C(=O)N[C@H](C(=O)N[C@@H](CC(N)=O)C(=O)N[C@H](C(=O)NCC(=O)N1CCC[C@H]1C(=O)N[C@@H](CC(N)=O)C(=O)N[C@H](C(=O)N[C@@H](Cc1ccc(O)cc1)C(N)=O)[C@@H](C)O)C(C)C)[C@@H](C)O
notes: also called compound 67
With B6, the IC50 was 4.63 nM.

B7: N^α1-[2-[2-[2-[[2-[2-[2-[[(4S)-4-carboxy-4-(19-carboxynonadecanoylamino)butanoyl]amino]ethoxy]ethoxy]acetyl]amino]ethoxy]ethoxy]acetyl]-[Arg17,Pro21,Pro27]-h-am … (peptide)
peptide: KCNTATCATQRLANFLRHSSPNFGAIPSSTNVGSNTY
modifications: C20 diacid-gGlu-2xOEG on alpha amino group of N-terminal Lys 1; disulfide Cys2-Cys7; C-terminal amide (as human amylin)
notes: also called compound 24
B7: the IC50 came out at 102 nM.

Values taken from patent US20140087995A1 (published 2014).
